Experimental data reported in patent US20240026407A1, “MODIFICATION OF SAPONINS” (GLAXOSMITHKLINE BIOLOGICALS SA, priority 2020, published 2024).

Assays:
Format in all cases: biochemical, Quillaja saponaria
[1] = Experiment 4-1: screening of glucosidases for deglycosylation with purified QS-18 (0.04 mg/ml) at pH 7.5 and room temperature; conditions: pH 7.5, room temperature, 20 h, clarified E. coli lysate, QS-18 2150 to QS-21 1988 by LCMS/MS
Summary of the method: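 Deglycosylation measured by LC-MS/MS as % conversion after 20 h room-temperature incubation of QS-18 phenyl fraction (0.04 mg/ml final) with polymyxin B/lysozyme lysates, pH 7.5 phosphate, of E. coli BL21(DE3) expressing each enzyme; MeCN quench. Positives exceeded negative control by >3 S.D.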

[2] = Experiment 4-2: screening of glucosidases for deglycosylation with purified QS-18 (1 mg/ml) at pH 6 and 30 deg C; conditions: pH 6, 30 degC, 18 hrs, clarified lysate, LCMS/MS
Summary of the method: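 Enzyme activity derived from LC-MS/MS analysis after MeCN quench. Substrate QS-18 (1 mg/ml final) was exposed overnight (18 h, 30 °C, pH 6 phosphate buffer) to clarified lysates containing candidate glucosidases.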

[3] = Experiment 4-4: screening of glucosidases for deglycosylation of QS-18 in crude bark extract (1 in 20 dilution) to QS-21; conditions: CBE 1 in 20 dilution, pH 6, 25 degC, 18 hours; % conversion of Middle Peak by UV HPLC
Description: Lysates were prepared as in Experiment 4-2.
Crude bark extract (CBE) was adjusted to pH 6 by dropwise addition of 2M NaOH with stirring. 25 uL of clarified lysate was transferred to a reaction plate, 22.5 ul of 100 mM potassium phosphate buffer pH 6 was added, 2.5 ul CBE at pH 6 was added. Reaction plates were sealed, incubated at 25 degC with shaking for 18 hours, then quenched by addition of 50 uL acetonitrile (MeCN). Quenched reaction plates were re-sealed and incubated at 20 degC with shaking for 10 min. The reaction plates were centrifuged (10 min, 4 degC) and analysed by UV HPLC with the method below:
Three key peaks of interest are apparent using this chromatography: Left Peak (retention time approximately 2.30-2.35 min) comprising mainly QS-17 family components; Middle Peak (retention time approximately 2.37-2.42 min) comprising mainly QS-18 family components and desglucosyl-QS-17 family components; and Right Peak (retention time approximately 2.44-2.50 min) comprising mainly QS-21 family components. Peak identity was supported by MS/MS.
Enzyme activity is calculated as the % conversion of the Middle Peak present in the crude bark extract: […]

Row | Molecule | Expt 4-1 % conv [1] | Expt 4-2 % conv [2] | Expt 4-4 % conv [3]
1 | 222 (protein, listed as Marinomonas posidonica) MTPKDILNALTVEEKARLCTGKDFWHLHGIERLELPSIMVTDGPHGLRKQSGEGDHVGLNASVKATCFPTASGLASSWNPALIEKMGVALGKECRAENVSVLLGPGINIKRNPLGGRNFEYFSEDPLIAGDMSTAWIKGVQSQDVGTSLKHYAVNNHEHCRMTVDAVVDQRTLREIYLPAFEKAIKQSQPWTVMCAYNKINGTYAAEHQQLLDDILVKEWGFEGIVVTDWGANNDRVEGIKHGQHLEMPSSGELNTQKILDAIDSGRLSIAALDKSVLRVLELIVKSQAALNNAPVNVDLERHHTLASKVAEESCVLLKNDQLLPAQKDQNVLVIGALANNTRYQGAGSSKINPFKLEQPLAQIEAVFGTNNVRYSQGYQLNDESDQTMIEDAVAQAEQADVIFLFAGLTPKYESEGFDRQHLNLPQVQLDLIDALGDQLGKTAVILQNGAPVTLPFVDKVPAILEAYLGGQAGASAIAKILAGDVNPSGKLAETFPLSLDDVPSQPYFPGTTKQTQYREAIWVGYRYFAHTAQPVLFPFGHGLTYSEFSFSELRIMDDKLDLKAVSFDEQTRIRLQVTVTNTGDRAGAEVVQCYLGQNKPSQPRPAKELRAYQKVFLEAGQSKCVELELNYRDFAFWCEADSQWRVESDDYHIQIGASVEDIRLTTLITLKTDTPLAPQNATLSAYFTPADRQFNDQSFSALLGKPIPDATPITPYTLNSTLGDIAQTEQGKPLFNAMLSVFSKMMEGDTNDSAAEADKLMAEAMVSDMPLRNLPVFNSQSYSEEALLALLADLNS | 1.6% | 0.4% | <3%
2 | 234 (protein, listed as Sphingobium chlorophenolicum) MTFPRSLFLASTILAFHCNPSFARNESPAKAIERADKTLKAMTPEEKTILTHGIMPLKILPNSPEPPAEAIPGAGYIKGIPRLGVPALYETDASLGVSYVFGLRKDGATALPSGLAQASTWNPALIEKAGRMIGAETRAKGFNVLLAGGVNLMRDPRNGRNFEYLGEDPLLAGTLVGHAIRGIQSNHIISTIKHFAFNGQETARKLVDSKISAANAHESDLLAFKIGIEIGDPGSVMCAYNKVNGHSACDNNWLLNTVLKHDWGYKGFVMSDWGAVPSLGAALNGLDQQSGEQLDTAVFFGDTLAAAAKSNPVYAKRLDDMNRRILWAIYNNGLDANPAKPGGVIDFKAHGDIAEQVARQGIVLLRNERGVLPLAASTKRIAVIGGYANSGVLSGAGSSQVQAEGGPAVYIPAGNGDENSSFIAESYHNSVPLKALRAAAPNAEITYRNGRYIAEAVAQAKKSDVAIVFATQWTSEGFDVPDMSLPNGQDALLAAVAAANPNTVVVLETGGPVMMPWLDSTAAVIEAWYPGARGAEAIAAVLTGKVNPSGKLPVTFPAHKDQLPRAEVDGMDSTEPSFLGMPDLKGQALVADYDIEGSNIGYRWNALKGNKALFPFGHGLSYTSFAASGLKTDGARASARITNTGKADGATIAQLYLVSRTGKPARRLVSFQRVELVAGQSKPLAMTIDPRLLGDWRDGNWTIVAGDYGFALGEDAEHLGPVTTVRLKGRTWRD | 2.5% | 0.7% | <3%
3 | 116 (protein, listed as Streptomyces netropsis) MPDDPVDVLDLDTKARLLSGQDMWSLPAVPRIGLRSIVMSDGPVGVRGVRWTADDPSLALPSPTALAATWDPALARRVGRLLAAEARRKGVHVLLAPTVNLHRSPLGGRHFEAYSEDPYLTARIGTGYVRGVQDGGVAAVVKHFVANDAETERFTVNNKVSARALRELYLAPFEAIVKDARPWGVMAAYNQVNGVTMTEHGHLQNDVLRGEWGFDGIVVSDWLAARDTVRAALGGLDVAMPGPVTVYGPALAAAVRAGDVPESVVDDAVRRVLRLADRVGALGEATRARPSAPDGRALAREVAARSFVLVRNAPVRGAPALPLDPAPGLRVALLGGAARDARILGGGSAQVFPARVVSPLDGLRAALPEGAVTYAVGAEPGDELLPAGAGFTLRAVCRDAAGRMLGEERMPSGMVQWLGDLPAGVGYEALRTVELTGTFTPRESGPHVFGTKGVGAFRLVVGGRTLFDGEQGADHADPFEAFLGSPVERGRVVLAAGTAVEVSLTCVVAEPDGAPIEAVGFCLLHREPERDAEELLAEAVAVAASADAAVVVVATTERVESEGFDRTTLALPGRQDELVARVAAVSPRTVVVVNSGSPVELPWRDDVAAVLLGWFPGQEAGGALADVLLGGCEPGGRLPTTWPVRLADAPVTRVAPVGGELAYAEGLFIGYRAWEKARATPAYAFGHGLGYTDWSYETLDMGGTGTARVRVRNTGSRPGREVVQVYLAVPPGDRAGRPVRRLAGFASVEAGPGETVEAVVALDPRAFEVWDDEAAGWRRIPGTYTAEAGRSIADRRLTAPVEVA | 4.7% | 0.5% | <3%
4 | 133 (protein, listed as Aquimixticola soesokkakensis) MTDSTATPPDPIAAKLTFARGRDYWTTQAAPEIGLRALRFADGPHGLRVQDDENPDHLGLERSAPATCFPPAVTLASSWDAALIEEVGAALGREARAAGVDVVLGPGLNLKRSPLCGRNFEYYSEDPMLSGLLAGASARGIQSVGVGACLKHFAANSQEGDRNRISADIDERSLRELYLRNFQLALEASGAWSIMTSYNRINGLHASQDPWLLTQVLREEWGFDGLVISDWGGVYDPVAALKAGMDLRMPGGALDDRLIAAHARGEIAEGDLDRVIANTTRLAERTRPRDTDVPPDVEAHHALVRRAAAESSVLLKNDGVLPLDPARYPKVAILGELARTPRIQGSGSSRVHPRRVVAPLDVLRERLAQSGAQVAFAPAYGLQNGPADAALITEALQVARDADIVLLFSGLTDAAEAEGSDRTHIDLPDQQLTLLAALADCDTPLVVSLANGAVVRSTQWRDTAQAIVEFWLSGQAHGETVADVLLGDVPPAGRLAQTIPRRLQDTPAFLDFPGEHRHVRHSEGLHIGYRWYDARDLAVDYPFGHGLSYTSFDYEELEIDVRASDDDIAFVARLTLRNSGARAGSEVVQLYASDPSTAYQTPPRELRGWQKVHLEAGESCAVSIPVKRAHLGHWHSGLKRWVFAGGPMTLHVGASSRDLRLTCETELHGEALPVVLTPWSLFGEWMQHPVMGPRIEALFASRGGVKGRAGDLLSDPAGRNTVYINPLAMLAQFPGVPLDQSDLETLCAEAAALA | 3.7% | 0.4% | <3%
5 | 380 (protein, listed as Ogataea parapolymorpha) MSTFDVDDILSQLHVKEKVQLLSLKDFWHTANIDRLNIPSVRLSDGPNGVRGTKFFRSVPSACFSSGTALAATFNMPLLEQLGKLMAEEARHKGAHVILGPTCNIARGPLGGRGFESFSEDPYLSGIAAAAIIKGIESQGIGATLKHFVCNDLEDERNSIDVILSDRALREIYLLPFQIAIKEANPKCVMSSYNKVMGEHVSQSKKLLTDILRKEWGWDGLTMSDWFGVYSIKSSLDAGLDLECPGYPLMRKHDALIHAISSREINMDVIDIRVRNILKLVQHALKSSIPQNAPEDSENNTPETSALLRKAASEAIVLLKNESSILPLKPSDEIAVIGPNARIPRMYGGGSASVNCYYGISVYDGISNKIGSQPPYSMGCDIARNMFDLGKLASYKGEPGVRIKVYKEAPGTPDRSLIEEFRYDSLQLLLFDYNHEKLDSSLFYFDIEGEFTSDKDMSYDIHLSCLGTALLYINGELFIDDKTNQKMGFAAIGASSLGDTKTIHMKKDERIEFKIEFGSAPTFTLETLDLVASNGGGSLTVAIGEKITDQNRINDAVELAKTADKVILCVGTSSDWESEGFDRPHMDLPKSQGILIEEILKVNKNIILVNLSGTPVTLPWIDEIPAVVHGWFNGMESGNAMADVLYGDVNASGKLSLSWPKRCEDNPSFLNFKSDKGKVVYGEDVFVGYRYYEKVCREPLFAFGYGLSYTAFNFDGLDVKVAADNLVCTLNIKNIGKLRGAEVVQLYVIPPLTTTTVSRPLKEFKGCQKVFLEPGQKITTTISVPIKYACSYFDVERQKWSIESGEYGVFIGNSSDAMDALIGKFVIQKPLLWSGL | 2.4% | 0.5% | <3%
6 | 350 (protein, Rhizobium radiobacter) MIDDILDKMTLEEQVSLLSGADFWTTVAIERLGVPKIKVTDGPNGARGGGSLVGGVKSACFPVAIALGATWDPELIERAGVALGGQAKSKGASVLLAPTVNIHRSGLNGRNFECYSEDPALTAACAVAYINGVQSQGVAATIKHFVANESEIERQTMSSDVDERTLREIYLPPFEEAVKKAGVKAVMSSYNKLNGTYTSENPWLLTKVLREEWGFDGVVMSDWFGSHSTAETINAGLDLEMPGPWRDRGEKLVAAVREGKVKAETVRASARRILLLLERVGAFEKAPDLAEHALDLPEDRALIRQLGAEGAVLLKNDGVLPLAKSSFDQIAVIGPNAASARVMGGGSARIAAHYTVSPLEGIRAALSNANSLRHAVGCNNNRLIDVFSGEMTVEYFKGRGFESRPVHVETVEKGEFFWFDLPSGDLDLADFSARMTATFVPQETGEHIFGMTNAGLARLFVDGELVVDGYDGWTKGENFFGTANSEQRRAVTLGAARRYRVVVEYEAPKASLDGINICALRFGVEKPLGDAGIAEAVETARKSDIVLLLVGREGEWDTEGLDLPDMRLPGRQEELIEAVAETNPNVVVVLQTGGPIEMPWLGKVRAVLQMWYPGQELGNALADVLFGDVEPAGRLPQTFPKALTDNSAITDDPSIYPGQDGHVRYAEGIFVGYRHHDTREIEPLFPFGFGLGYTRFTWGAPQLSGTEMGADGLTVTVDVTNIGDRAGSDVVQLYVHSPNARVERPFKELRAFAKLKLAPGATGTAVLKIAPRDLAYFDVEAGRFRADAGKYELIVAASAIDIRASVSIHLPVDHVMEP | 2.6% | 0.7% | <3%
